In article PMC4488664, “An Inactive Geminin Mutant That Binds Cdt1” (Genes, 2015):

T1: mouse Cdt1^172-368 (mouse, UniProt Q8R4E9 172-368)
T1 chain: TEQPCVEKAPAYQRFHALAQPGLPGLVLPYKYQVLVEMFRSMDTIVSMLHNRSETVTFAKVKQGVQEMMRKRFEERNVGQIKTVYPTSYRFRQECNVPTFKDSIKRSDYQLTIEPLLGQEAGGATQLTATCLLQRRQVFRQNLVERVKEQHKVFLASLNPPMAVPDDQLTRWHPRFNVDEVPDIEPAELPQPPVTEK

T2: mouse Cdt1^172-368 (mouse, UniProt Q8R4E9 172-368)
T2 construct: Cdt1, mouse, residues 172-368; Inserted between the NdeI and KpnI sites of pET Duet 1; source: E. coli BL21, purified, dialyzed
T2 sequence (looked up): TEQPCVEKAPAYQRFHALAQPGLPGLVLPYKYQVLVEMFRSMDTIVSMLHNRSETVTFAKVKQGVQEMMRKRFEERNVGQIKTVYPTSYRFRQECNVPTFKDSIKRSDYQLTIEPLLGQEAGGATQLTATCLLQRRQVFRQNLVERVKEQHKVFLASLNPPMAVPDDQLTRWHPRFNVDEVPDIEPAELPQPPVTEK


Experiments:
mouse Cdt1^172-368 [1] = molecular target: T1, mouse Cdt1^172-368; test: ITC
[2] = molecular target: mouse Cdt1^172-368 (mouse) (UniProt Q8R4E9); test: ITC; MicroCal ITC200, 18 °C; 20 mM Na-HEPES pH 7.5, 300 mM NaCl, 7 mM β-mercaptoethanol; 17 injections of Geminin (WT 0.432 mM, AWA 0.297 mM) into 200 µL Cdt1 (0.044 mM)
mouse Cdt1^172-368 [3] = molecular target: T2, mouse Cdt1^172-368; test: as above; settings: both partners purified

Row | Binder | Ka (mouse Cdt1^172-368 [1]) | Kd [2] | Kd (mouse Cdt1^172-368 [3])
1 | mouse Geminin^79-157 AWA (domain or fragment) TQEAFDLISKENPSSQAWAEVAEQRRKALYEALKENEKLHKEIEQKDSEIARLRKENKDLAEVAEHVQYMAEVIERLSN | 4e+06 M⁻¹ | 250 nM | –
2 | mouse Geminin^79-157 wild type (domain or fragment, UniProt O88513 79-157, looked up, Geminin, mouse, residues 79-157 (methods); Limits differ between methods (79-157) and legend (72-157); also called Geminin^WT; source: E. coli BL21, purified over nickel-NTA agarose, dialyzed) TQEAFDLISKENPSSQYWKEVAEQRRKALYEALKENEKLHKEIEQKDSEIARLRKENKDLAEVAEHVQYMAEVIERLSN | 3.5e+06 M⁻¹ | – | 290 nM
